Experiments:
[1] = molecular target: M4N-His (M4N with the stop helix extended by a C-terminal His6-tag); assay: SEC-MALS; static light scattering: Superdex S200 gel size exclusion column coupled to a miniDAWN Tristar laser photometer and a differential refractometer; buffer A (50 mM Tris pH 8, 150 mM NaCl)
[2] = molecular target: M4NΔC (M4N without stop helix); assay: as above

Row | Substance | stoichiometry N [1] | stoichiometry N [2]
1 | M4N-His (M4N with the stop helix extended by a C-terminal His6-tag) | 2 | –
2 | M4NΔC (M4N without stop helix) | – | 2
